Results from US20230201365A1 (BRIGHT PEAK THERAPEUTICS, published 2023).

Legend:
[1] = target: T1, Recombinant Mouse Fc gamma RI/CD64 Protein (mouse, UniProt P26151 25-297); experiment: ELISA, antibody coated at 2.5 ug/ml, soluble Fc gamma receptor titrated, HRP detection; mean EC50
T1 construct: Bought recombinant protein; also called mu FcγRI (CD64); murine CD64
T1 sequence (looked up): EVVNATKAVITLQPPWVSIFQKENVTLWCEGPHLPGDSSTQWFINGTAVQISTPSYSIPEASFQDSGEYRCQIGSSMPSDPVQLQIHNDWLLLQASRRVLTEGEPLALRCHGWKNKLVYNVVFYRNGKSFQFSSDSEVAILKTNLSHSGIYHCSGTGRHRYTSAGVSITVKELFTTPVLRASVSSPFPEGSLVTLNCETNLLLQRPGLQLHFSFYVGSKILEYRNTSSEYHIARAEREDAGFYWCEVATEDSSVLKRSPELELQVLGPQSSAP
Protocol: (§1) To analyze Fc Receptor gamma binding test molecules were diluted to 2.5 ug/ml in PBS and plates were coated overnight at 4° C. The next day the assay plates were washed four times with 100 ul of wash buffer: PBS+0.02% Tween 20 and blocked with PBS+1% BSA, for one hour at 37° C., with shaking at 600 RPM. The blocked plates were then washed four times with 100 ul wash buffer. Diluted FcRgamma (Reagents listed, below) was freshly diluted in wash buffer. Plates were then incubated with 25 ul of diluted Fc for two hours with shaking at 600 RPMs, then washed with 100 ul wash buffer, four times. The wells were then incubated with 25 ul of either 1:500 diluted streptavidin-Horseradish peroxidase (HRP) for detection of human FcgR or 1:500 diluted Anti-HIS tag antibody-HRP in wash buffer. The HPR detection molecules were incubated in the wells at room temperature for one hour with shaking at 600 RPMs. Plate wells were washed with 100 ul of wash buffer, four times. Plates were detected using the chromogenic HRP substrate 3,3′,5,5;-tetramethylbenzidine (TMB). Samples were read using a spectrophotometer plate reader with OD set to 450 nm. Reagents: Recombinant Mouse Fc gamma RI/CD64 Protein, CF R&D Systems #2074-FC-050; Recombinant Human Fc gamma RI/CD64 Protein, CF R&D Systems #1257-FC-050; Recombinant Mouse Fc gamma RIII/CD16 Protein, CF R&D Systems #1960-FC-050; Recombinant Human Fc gamma RIIA/CD32a (H167) Protein, CF R&D Systems #9595-CD-050; Recombinant Mouse Fc gamma R4/CD16-2 Protein, CF R&D Systems #1974-CD-050; Recombinant Human Fc gamma RIIIA/CD16a Protein, CF R&D Systems #4325-FC-050; Recombinant Human Fc gamma RIIB/CD32b Avi-tag Protein, CF R&D Systems #AVI1875-050; Recombinant Mouse Fc gamma RIIB/CD32b Protein, CF R&D Systems #1460-CD-050; His Tag Horseradish Peroxidase-conjugated Antibody, R&D Systems #MAB050H; Streptavidin-HRP, Sigma #RABHRP3-600 µL.

[2] = target: T2, Recombinant Human Fc gamma RIIIA/CD16a Protein (human, UniProt P08637 17-208); experiment: as above
T2 construct: Bought recombinant protein; also called hu FcγRIII (CD16a); huFcgRIII
T2 sequence (P08637 17-208 limits assumed): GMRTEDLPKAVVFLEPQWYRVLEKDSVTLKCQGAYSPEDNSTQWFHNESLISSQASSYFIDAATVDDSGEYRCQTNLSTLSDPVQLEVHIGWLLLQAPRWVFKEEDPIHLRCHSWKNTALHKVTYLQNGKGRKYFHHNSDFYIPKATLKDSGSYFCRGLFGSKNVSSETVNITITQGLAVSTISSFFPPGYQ
Protocol: as §1

[3] = target: T3, Recombinant Human Fc gamma RI/CD64 Protein (human, UniProt P12314 16-288); experiment: as above
T3 construct: Bought recombinant protein; also called hu FcγRI (CD64)
T3 sequence (P12314 16-288 limits assumed): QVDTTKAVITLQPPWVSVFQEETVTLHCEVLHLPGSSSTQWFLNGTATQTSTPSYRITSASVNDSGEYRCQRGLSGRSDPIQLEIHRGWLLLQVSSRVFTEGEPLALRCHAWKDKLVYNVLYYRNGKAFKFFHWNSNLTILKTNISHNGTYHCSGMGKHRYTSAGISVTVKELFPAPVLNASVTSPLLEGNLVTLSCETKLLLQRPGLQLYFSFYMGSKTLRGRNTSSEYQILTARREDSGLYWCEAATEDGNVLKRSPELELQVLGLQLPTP
Protocol: as §1

[4] = target: T4, Recombinant Human Fc gamma RIIA/CD32a (H167) Protein (human, UniProt P12318 36-218); experiment: as above
T4 construct: Bought recombinant protein; H167 variant as printed; also called hu FcγRIIa (CD32a); human CD32a
T4 sequence (looked up): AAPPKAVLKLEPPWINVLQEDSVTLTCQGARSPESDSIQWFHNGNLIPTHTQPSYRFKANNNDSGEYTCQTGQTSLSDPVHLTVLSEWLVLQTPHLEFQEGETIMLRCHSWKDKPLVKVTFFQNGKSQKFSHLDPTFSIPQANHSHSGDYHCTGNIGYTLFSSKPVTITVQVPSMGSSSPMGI
Protocol: as §1

[5] = target: T5, Recombinant Human Fc gamma RIIB/CD32b Avi-tag Protein (human, UniProt P31994 46-217); experiment: as above
T5 construct: Bought recombinant protein with Avi-tag; also called hu FcγRIIb (CD32b); human CD32b
T5 sequence (looked up): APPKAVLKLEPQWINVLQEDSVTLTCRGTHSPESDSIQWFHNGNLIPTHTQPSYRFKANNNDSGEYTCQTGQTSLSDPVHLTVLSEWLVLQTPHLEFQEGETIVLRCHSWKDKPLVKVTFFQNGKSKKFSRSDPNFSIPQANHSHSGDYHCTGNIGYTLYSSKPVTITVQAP
Protocol: as §1

[6] = target: T6, Recombinant Mouse Fc gamma RIII/CD16 Protein (mouse, UniProt P08508 31-215); experiment: as above
T6 construct: Bought recombinant protein; also called mu FcγRIII (CD16); murine CD16
T6 sequence (looked up): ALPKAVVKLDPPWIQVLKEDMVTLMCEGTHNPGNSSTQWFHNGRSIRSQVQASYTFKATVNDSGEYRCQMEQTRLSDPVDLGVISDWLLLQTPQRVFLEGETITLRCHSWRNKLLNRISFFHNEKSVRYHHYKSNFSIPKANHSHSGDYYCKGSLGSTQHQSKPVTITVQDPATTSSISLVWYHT
Protocol: as §1

[7] = target: T7, recombinant biotinylated CD20 (human) (human, UniProt P11836 1-297, limits assumed, biotinylated (site not stated)); experiment: ELISA, antibody coated on the plate, biotinylated CD20 titrated, streptavidin-HRP detection, OD 450 nm
T7 construct: also called hu CD20; B-lymphocyte antigen CD20
T7 sequence: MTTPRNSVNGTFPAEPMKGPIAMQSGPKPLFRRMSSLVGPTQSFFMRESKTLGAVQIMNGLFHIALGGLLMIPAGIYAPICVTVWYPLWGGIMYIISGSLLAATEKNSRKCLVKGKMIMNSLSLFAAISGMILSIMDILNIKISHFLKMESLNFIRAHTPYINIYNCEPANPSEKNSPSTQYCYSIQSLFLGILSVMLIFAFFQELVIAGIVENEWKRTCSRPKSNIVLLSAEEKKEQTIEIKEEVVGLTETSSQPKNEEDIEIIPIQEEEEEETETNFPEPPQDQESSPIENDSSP
Protocol: (§2) The interaction of the unmodified and of conjugated anti-CD20 antibodies with CD20 were measured by ELISA assay. […] Plates were washed four times with 100 μl of PBS-0.02% Tween20. and blocked with 25 μl of PBS-0.02% Tween20-1% BSA at 37° C. with shaking at 600 RPM, for 1 h. Plates were then washed four times with 100 μl of PBS-0.02% Tween20. 25 μl of recombinant biotinylated CD20 were added in seven-fold serial dilutions starting at 18 nM down to 10 pM into PBS-0.02% Tween20-0.1% BSA and incubated at 37° C. during 2 h. Plates were then washed four times with 100 μl of PBS-0.02% Tween20. 25 ul of Streptavidin-Horseradish peroxidase (#RABHRP3, Merck, Buchs, Switzerland) diluted at 1:500 into PBS-0.02% Tween20-0.1% BSA were added to each well and incubated at room temperature for 30 min. Plates were then washed four times with 100 μl of PBS-0.02% Tween20. Fifty microliters of TMB substrate reagent (#CL07, Merck, Buchs, Switzerland) were added to each well and incubated at 37° C. during 5min After 5 min at 37° C., Horseradish peroxidase reaction is stopped by adding 50 μl/well of 0.5M H₂SO₄ stop solution. ELISA signal is then measured at 450 nm on an ENSPIRE® plate reader from Perkin Elmer (Schwerzenbach, Switzerland).

[8] = target: T7, recombinant biotinylated CD20 (human); experiment: ELISA, antibody coated on plate, biotinylated recombinant CD20 titrated, streptavidin-HRP detection; mean EC50
Protocol: as §2

- EC50 [1]: 35 nM
- EC50 [2]: 185 nM
- EC50 [3]: 0.23 nM
- EC50 [4]: 740 nM
- EC50 [5]: 880 nM
- EC50 [6]: 133 nM
- EC50 (read off the curve) [7]: ~0.04 nM
- EC50 [8]: 0.08 nM
B1: biosimilar Rituximab (unconjugated parent anti-CD20 antibody) (antibody, human IgG1, kappa)
heavy: not shown
light: QIVLSQSPAILSASPGEKVTMTCRASSSVSYIHWFQQKPGSSPKPWIYATSNLASGVPVRFSGSGSGTSYSLTISRVEAEDAATYYCQQWTSNPPTFGGGTKLEIKRTVAAPSVFIFPPSDEQLKSGTASVVCLLNNFYPREAKVQWKVDNALQSGNSQESVTEQDSKDSTYSLSSTLTLSKADYEKHKVYACEVTHQGLSSPVTKSFNRGEC
notes: The antibody tested is a biosimilar of rituximab; also called aCD20 AB; parent antibody
